The chains are these.
B1: Compound 183 (peptide)
peptide: Isovaleryl-APEK([AEEA-AEEA-γGlu-C18 diacid])PPEDASPEELQRYYVSLRHYYNWLTRQRY-NH2
SMILES: CC(C)CC(=O)N[C@@H](C)C(=O)N1CCC[C@H]1C(=O)N[C@@H](CCC(=O)O)C(=O)N[C@@H](CCCCNC(=O)COCCOCCNC(=O)COCCOCCNC(=O)CC[C@H](NC(=O)CCCCCCCCCCCCCCCCC(=O)O)C(=O)O)C(=O)N1CCC[C@H]1C(=O)N1CCC[C@H]1C(=O)N[C@@H](CCC(=O)O)C(=O)N[C@@H](CC(=O)O)C(=O)N[C@@H](C)C(=O)N[C@@H](CO)C(=O)N1CCC[C@H]1C(=O)N[C@@H](CCC(=O)O)C(=O)N[C@@H](CCC(=O)O)C(=O)N[C@@H](CC(C)C)C(=O)N[C@@H](CCC(N)=O)C(=O)N[C@@H](CCCNC(=N)N)C(=O)N[C@@H](Cc1ccc(O)cc1)C(=O)N[C@@H](Cc1ccc(O)cc1)C(=O)N[C@H](C(=O)N[C@@H](CO)C(=O)N[C@@H](CC(C)C)C(=O)N[C@@H](CCCNC(=N)N)C(=O)N[C@@H](Cc1c[nH]cn1)C(=O)N[C@@H](Cc1ccc(O)cc1)C(=O)N[C@@H](Cc1ccc(O)cc1)C(=O)N[C@@H](CC(N)=O)C(=O)N[C@@H](Cc1c[nH]c2ccccc12)C(=O)N[C@@H](CC(C)C)C(=O)N[C@H](C(=O)N[C@@H](CCCNC(=N)N)C(=O)N[C@@H](CCC(N)=O)C(=O)N[C@@H](CCCNC(=N)N)C(=O)N[C@@H](Cc1ccc(O)cc1)C(N)=O)[C@@H](C)O)C(C)C
B2: Compound 191 (peptide)
peptide: Isovaleryl-APEK([AEEA-AEEA-γGlu-C18 diacid])PEEDASPEELQRYYISLRHYYNWLTRQRY-NH2
SMILES: CC[C@H](C)[C@H](NC(=O)[C@H](Cc1ccc(O)cc1)NC(=O)[C@H](Cc1ccc(O)cc1)NC(=O)[C@H](CCCNC(=N)N)NC(=O)[C@H](CCC(N)=O)NC(=O)[C@H](CC(C)C)NC(=O)[C@H](CCC(=O)O)NC(=O)[C@H](CCC(=O)O)NC(=O)[C@@H]1CCCN1C(=O)[C@H](CO)NC(=O)[C@H](C)NC(=O)[C@H](CC(=O)O)NC(=O)[C@H](CCC(=O)O)NC(=O)[C@H](CCC(=O)O)NC(=O)[C@@H]1CCCN1C(=O)[C@H](CCCCNC(=O)COCCOCCNC(=O)COCCOCCNC(=O)CC[C@H](NC(=O)CCCCCCCCCCCCCCCCC(=O)O)C(=O)O)NC(=O)[C@H](CCC(=O)O)NC(=O)[C@@H]1CCCN1C(=O)[C@H](C)NC(=O)CC(C)C)C(=O)N[C@@H](CO)C(=O)N[C@@H](CC(C)C)C(=O)N[C@@H](CCCNC(=N)N)C(=O)N[C@@H](Cc1c[nH]cn1)C(=O)N[C@@H](Cc1ccc(O)cc1)C(=O)N[C@@H](Cc1ccc(O)cc1)C(=O)N[C@@H](CC(N)=O)C(=O)N[C@@H](Cc1c[nH]c2ccccc12)C(=O)N[C@@H](CC(C)C)C(=O)N[C@H](C(=O)N[C@@H](CCCNC(=N)N)C(=O)N[C@@H](CCC(N)=O)C(=O)N[C@@H](CCCNC(=N)N)C(=O)N[C@@H](Cc1ccc(O)cc1)C(N)=O)[C@@H](C)O
B3: Compound 184 (peptide)
peptide: Isovaleryl-APEK([AEEA-AEEA-γGlu-C18 diacid])PEEAASPEELQRYYVTLRHYYNWLTRQRY-NH2
SMILES: CC(C)CC(=O)N[C@@H](C)C(=O)N1CCC[C@H]1C(=O)N[C@@H](CCC(=O)O)C(=O)N[C@@H](CCCCNC(=O)COCCOCCNC(=O)COCCOCCNC(=O)CC[C@H](NC(=O)CCCCCCCCCCCCCCCCC(=O)O)C(=O)O)C(=O)N1CCC[C@H]1C(=O)N[C@@H](CCC(=O)O)C(=O)N[C@@H](CCC(=O)O)C(=O)N[C@@H](C)C(=O)N[C@@H](C)C(=O)N[C@@H](CO)C(=O)N1CCC[C@H]1C(=O)N[C@@H](CCC(=O)O)C(=O)N[C@@H](CCC(=O)O)C(=O)N[C@@H](CC(C)C)C(=O)N[C@@H](CCC(N)=O)C(=O)N[C@@H](CCCNC(=N)N)C(=O)N[C@@H](Cc1ccc(O)cc1)C(=O)N[C@@H](Cc1ccc(O)cc1)C(=O)N[C@H](C(=O)N[C@H](C(=O)N[C@@H](CC(C)C)C(=O)N[C@@H](CCCNC(=N)N)C(=O)N[C@@H](Cc1c[nH]cn1)C(=O)N[C@@H](Cc1ccc(O)cc1)C(=O)N[C@@H](Cc1ccc(O)cc1)C(=O)N[C@@H](CC(N)=O)C(=O)N[C@@H](Cc1c[nH]c2ccccc12)C(=O)N[C@@H](CC(C)C)C(=O)N[C@H](C(=O)N[C@@H](CCCNC(=N)N)C(=O)N[C@@H](CCC(N)=O)C(=O)N[C@@H](CCCNC(=N)N)C(=O)N[C@@H](Cc1ccc(O)cc1)C(N)=O)[C@@H](C)O)[C@@H](C)O)C(C)C
B4: Compound 189 (peptide)
peptide: Isovaleryl-APEK([AEEA-AEEA-γGlu-C18 diacid])PEEDASEAELQRYYVSLRHYYNWLTRQRY-NH2
SMILES: CC(C)CC(=O)N[C@@H](C)C(=O)N1CCC[C@H]1C(=O)N[C@@H](CCC(=O)O)C(=O)N[C@@H](CCCCNC(=O)COCCOCCNC(=O)COCCOCCNC(=O)CC[C@H](NC(=O)CCCCCCCCCCCCCCCCC(=O)O)C(=O)O)C(=O)N1CCC[C@H]1C(=O)N[C@@H](CCC(=O)O)C(=O)N[C@@H](CCC(=O)O)C(=O)N[C@@H](CC(=O)O)C(=O)N[C@@H](C)C(=O)N[C@@H](CO)C(=O)N[C@@H](CCC(=O)O)C(=O)N[C@@H](C)C(=O)N[C@@H](CCC(=O)O)C(=O)N[C@@H](CC(C)C)C(=O)N[C@@H](CCC(N)=O)C(=O)N[C@@H](CCCNC(=N)N)C(=O)N[C@@H](Cc1ccc(O)cc1)C(=O)N[C@@H](Cc1ccc(O)cc1)C(=O)N[C@H](C(=O)N[C@@H](CO)C(=O)N[C@@H](CC(C)C)C(=O)N[C@@H](CCCNC(=N)N)C(=O)N[C@@H](Cc1c[nH]cn1)C(=O)N[C@@H](Cc1ccc(O)cc1)C(=O)N[C@@H](Cc1ccc(O)cc1)C(=O)N[C@@H](CC(N)=O)C(=O)N[C@@H](Cc1c[nH]c2ccccc12)C(=O)N[C@@H](CC(C)C)C(=O)N[C@H](C(=O)N[C@@H](CCCNC(=N)N)C(=O)N[C@@H](CCC(N)=O)C(=O)N[C@@H](CCCNC(=N)N)C(=O)N[C@@H](Cc1ccc(O)cc1)C(N)=O)[C@@H](C)O)C(C)C
B5: Compound 185 (peptide)
peptide: Isovaleryl-APEK([AEEA-AEEA-γGlu-C18 diacid])PEEEASPEELQRYYVELRHYYNWLTRQRY-NH2
SMILES: CC(C)CC(=O)N[C@@H](C)C(=O)N1CCC[C@H]1C(=O)N[C@@H](CCC(=O)O)C(=O)N[C@@H](CCCCNC(=O)COCCOCCNC(=O)COCCOCCNC(=O)CC[C@H](NC(=O)CCCCCCCCCCCCCCCCC(=O)O)C(=O)O)C(=O)N1CCC[C@H]1C(=O)N[C@@H](CCC(=O)O)C(=O)N[C@@H](CCC(=O)O)C(=O)N[C@@H](CCC(=O)O)C(=O)N[C@@H](C)C(=O)N[C@@H](CO)C(=O)N1CCC[C@H]1C(=O)N[C@@H](CCC(=O)O)C(=O)N[C@@H](CCC(=O)O)C(=O)N[C@@H](CC(C)C)C(=O)N[C@@H](CCC(N)=O)C(=O)N[C@@H](CCCNC(=N)N)C(=O)N[C@@H](Cc1ccc(O)cc1)C(=O)N[C@@H](Cc1ccc(O)cc1)C(=O)N[C@H](C(=O)N[C@@H](CCC(=O)O)C(=O)N[C@@H](CC(C)C)C(=O)N[C@@H](CCCNC(=N)N)C(=O)N[C@@H](Cc1c[nH]cn1)C(=O)N[C@@H](Cc1ccc(O)cc1)C(=O)N[C@@H](Cc1ccc(O)cc1)C(=O)N[C@@H](CC(N)=O)C(=O)N[C@@H](Cc1c[nH]c2ccccc12)C(=O)N[C@@H](CC(C)C)C(=O)N[C@H](C(=O)N[C@@H](CCCNC(=N)N)C(=O)N[C@@H](CCC(N)=O)C(=O)N[C@@H](CCCNC(=N)N)C(=O)N[C@@H](Cc1ccc(O)cc1)C(N)=O)[C@@H](C)O)C(C)C
B6: Compound 187 (peptide)
peptide: Isovaleryl-APEK([AEEA-AEEA-γGlu-C18 diacid])PEEDASPEELQRYYVSLRHQYNWLTRQRY-NH2
SMILES: CC(C)CC(=O)N[C@@H](C)C(=O)N1CCC[C@H]1C(=O)N[C@@H](CCC(=O)O)C(=O)N[C@@H](CCCCNC(=O)COCCOCCNC(=O)COCCOCCNC(=O)CC[C@H](NC(=O)CCCCCCCCCCCCCCCCC(=O)O)C(=O)O)C(=O)N1CCC[C@H]1C(=O)N[C@@H](CCC(=O)O)C(=O)N[C@@H](CCC(=O)O)C(=O)N[C@@H](CC(=O)O)C(=O)N[C@@H](C)C(=O)N[C@@H](CO)C(=O)N1CCC[C@H]1C(=O)N[C@@H](CCC(=O)O)C(=O)N[C@@H](CCC(=O)O)C(=O)N[C@@H](CC(C)C)C(=O)N[C@@H](CCC(N)=O)C(=O)N[C@@H](CCCNC(=N)N)C(=O)N[C@@H](Cc1ccc(O)cc1)C(=O)N[C@@H](Cc1ccc(O)cc1)C(=O)N[C@H](C(=O)N[C@@H](CO)C(=O)N[C@@H](CC(C)C)C(=O)N[C@@H](CCCNC(=N)N)C(=O)N[C@@H](Cc1c[nH]cn1)C(=O)N[C@@H](CCC(N)=O)C(=O)N[C@@H](Cc1ccc(O)cc1)C(=O)N[C@@H](CC(N)=O)C(=O)N[C@@H](Cc1c[nH]c2ccccc12)C(=O)N[C@@H](CC(C)C)C(=O)N[C@H](C(=O)N[C@@H](CCCNC(=N)N)C(=O)N[C@@H](CCC(N)=O)C(=O)N[C@@H](CCCNC(=N)N)C(=O)N[C@@H](Cc1ccc(O)cc1)C(N)=O)[C@@H](C)O)C(C)C

*1 amine or outer side, *2 acyl side, *3 side chain or, on linkers, in order; H or OH if unused. Side-chain parts run from the residue outwards. The star is where a group is joined. C18 diacid = O=C(O)CCCCCCCCCCCCCCCCC(=O)*; γGlu = O=C(O)[C@H](CCC(=O)[*:2])N[*:1]; Isovaleryl = CC(C)CC(=O)*; AEEA = NCCOCCOCC(=O)O

The target of the experiment is T1, human neuropeptide Y2 receptor (human, UniProt P49146 1-381).
T1 construct: whole, on cells; also called hNPY2 receptor; hNPY2-R
T1 sequence (looked up): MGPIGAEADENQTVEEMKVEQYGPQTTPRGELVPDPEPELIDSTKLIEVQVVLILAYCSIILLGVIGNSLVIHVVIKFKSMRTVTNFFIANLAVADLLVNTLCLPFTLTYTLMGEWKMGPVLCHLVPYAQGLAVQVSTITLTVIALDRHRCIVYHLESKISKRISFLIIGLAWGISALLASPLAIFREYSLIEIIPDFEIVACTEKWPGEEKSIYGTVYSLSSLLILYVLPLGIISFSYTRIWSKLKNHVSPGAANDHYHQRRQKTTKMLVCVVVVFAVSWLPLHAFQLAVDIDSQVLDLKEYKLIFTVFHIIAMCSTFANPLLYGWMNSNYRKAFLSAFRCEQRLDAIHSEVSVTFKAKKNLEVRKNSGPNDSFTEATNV
Put plainly: radioligand competition (125I-PYY(1-36)), hNPY2R membranes. In a few lines:
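Commercial human Y2 receptor membranes (0.5 μg protein/well) were incubated with peptide for 2 h at room temperature in 50 mM HEPES, 5 mM MgCl₂, 1 mM CaCl₂, pH 7.4, with 0.2% ovalbumin. Bound radioligand was separated on PEI-soaked GF/C filters and counted by scintillation, and IC₅₀ came from nonlinear sigmoidal regression.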
In general terms: Loss of bound radioactivity is the signal in a displacement assay; it reports binding, not function.
As usually defined, the Ki is the equilibrium dissociation constant of an inhibitor or competing ligand from its target. B1 had a Ki of 0.7 nM.
In the case of B2 it was 1.7 nM; in that of B3, 2.06 nM.
B4 had a Ki of 2.08 nM.
The figure for B5 is 3.58 nM; for B6 it is 2.76 nM.

The values above are taken from patent US20210139548A1 (published 2021).
